# Test results: patent US8357518B2, “Thermostable enzymes for the hydrolysis of mannan-containing polysaccharides” (The Board of Trustees of the University of Illinois, priority 2010, dated 2013)
# B1: Caldanaerobius polysaccharolyticus endo-β-mannanase Man5B, wild type, SEQ ID NO: 31 (Caldanaerobius polysaccharolyticus) (protein)
# chain: MKKYGFNFQWMYVWEEGREPEPPDKKALDFLAETGFNFVRIPVDYRFWTRNFDYFNPDKKVFEYIDLYLRECSARNIHMCLNLHRAPGYCINRNDIERDNLWLDKRAQDGFVYQWELFAKRYKGVSSKFLSFDLVNEPPNIGQYGLTRENHASLIIRTVEAIRKIDPDREIVIDGLGGGNIAMPELAHLGVVHSGRGYQPMALTHYQASWWDGHKGLPEPYYPDLLWQGKVWNKDTLREYYKPWRDLQQKGVNVHIGEFGCFNKTSNDVAIRWFEDVLSLYKEFEWGYSLWNFKGPFGIVEHGRPGAKYEYYRGFKVDRELLDLLVENRV
# Assays:
# [1] = substrate: O=[N+]([O-])c1ccc(O[C@@H]2O[C@H](CO)[C@@H](O)[C@H](O)[C@@H]2O)cc1; test: Kinetic properties with pNP-linked sugars (Man5B wild type); assay type: biochemical, Caldanaerobius polysaccharolyticus; settings: other: wild type Man5B 5 nM, substrate 0.06 to 10 mM, 65° C., citrate buffer pH 5.5
# Description: (§1) The plasmid constructs were then introduced into E. coli BL-21 CodonPlus (DE3) RIL competent cells by heat shock, and grown overnight in lysogeny broth (LB) agar medium supplemented with ampicillin (100 μg/mL) and chloramphenicol (50 μg/mL) at 37° C. After 12 h, single colonies were selected and used to inoculate fresh LB (10 mL) supplemented with the antibiotics above at the same concentrations, followed by culturing with aeration for 8 h at 37° C. The pre-cultures were then inoculated into fresh LB (1 L) supplemented with ampicillin and chloramphenicol and the cultures were incubated at 37° C. with vigorous aeration (225 rpm/min). The cultures were grown to an optical density of 0.3 at 600 nm, and the temperature was shifted to 16° C. and gene expression was induced by the addition of 0.1 mM isopropyl β-D-thiogalactopyranoside (IPTG). After 16 h of growth, the cells were harvested by centrifugation (4000×g, […], 4° C.), the cell pellets were then re-suspended in 30 mL lysis buffer (50 mM Tris-HCl, 300 mM NaCl, pH 7.0), and ruptured by two passages through an EmulsiFlex C-3 cell homogenizer from Avestin (Ottawa, Canada). The cell lysate was then clarified by centrifugation at 20,000×g for 30 min at 4° C. to remove cell debris. The lysate containing recombinant protein was then incubated at 65° C. for 30 min, and centrifuged at 20,000×g for 15 min at 4° C. to remove heat labile E. coli proteins. The recombinant proteins were then purified from the heat treated supernatant using the Talon Metal Affinity Resin according to the supplier's protocol, with the exception that Tris-based binding (50 mM Tris-HCl, 300 mM NaCl, pH 7.5), and elution (50 mM Tris-HCl, 300 mM NaCl, 250 mM Imidazole, pH 7.5) buffers were employed. Aliquots of eluted fractions were analyzed by sodium dodecyl sulfate-polyacrylamide gel electrophoresis (SDS-PAGE) and protein bands were visualized by staining with Coomassie brilliant blue G-250. Elution fractions were pooled and the proteins were then exchanged into protein storage buffer (50 mM Tris-HCl, 150 mM NaCl, pH 7.5) by three successive concentration and dilution cycles with Amicon Ultra-15 centrifugal filter units (Man5A-TM1, Man5A-TM2, 50,000 MWCO; Man5B,10,000 MWCO). The UV absorbances of the protein solutions were recorded at 280 nm using a Nanoprop 1000 from Thermo Scientific (Waltham, Mass.) and the protein concentrations were calculated using the following extinction coefficients: Man5A-TM1, ε280 nm=189 mM^−1 cm^−1; Man5A-TM2, ε280 nm=113 mM^−1 cm^−1; Man5B, ε280 nm=103 mM^−1 cm^−1.
# (§2) Determination of kinetic properties for wild type and mutant Man5B with pNP-linked sugars. Kinetic properties of wild type and mutant Man5B were determined for pNP-β-D-mannopyranoside and pNP-β-D-cellobioside. The substrate concentrations ranged from 0.06 to 10 mM and reactions were performed at 65° C. in citrate buffer (50 mM sodium citrate, pH 5.5). The reactions were equilibrated to 65° C. using a thermostated Cary 300 UV-Vis spectrophotometer, and the reactions were initiated by the addition of wild type (5 nM, final concentration) or mutant (2 μM, final concentration) Man5B. The rate of pNP release was determined by continuously monitoring the absorbance at 400 nm. Initial rate data were then plotted against the substrate concentrations, and the values of the Michaelis-Menten constant (KM) and the maximum velocity (Vmax) were estimated from a nonlinear curve fit using GraphPad Prism v5.01 from GraphPad Software (San Diego, Calif.). The kcat was calculated as the quotient of the Vmax and the concentration of enzyme used in the reaction.
# (§3) Next, to test whether the mutations introduced in Man5B had any effects on the catalytic activity of this enzyme, the catalytic parameters for the wild type and mutant enzymes were determined using pNP-β-D-cellobioside and pNP-β-D-mannopyranoside as substrates.
# [2] = substrate: O=[N+]([O-])c1ccc(O[C@@H]2O[C@H](CO)[C@@H](O[C@@H]3O[C@H](CO)[C@@H](O)[C@H](O)[C@H]3O)[C@H](O)[C@H]2O)cc1; test: as above; assay type: biochemical, Caldanaerobius polysaccharolyticus; settings: other: wild type Man5B 5 nM, substrate 0.06 to 10 mM, 65° C., citrate buffer pH 5.5
# Description: as §1, §2, §3
protein,measurement,setting,value
B1,Km,[1],26 ± 4 mM
same,kcat,[1],42 ± 3 s⁻¹
same,kcat/Km,[1],1600 ± 100 M⁻¹ s⁻¹
same,Km,[2],(9.7 ± 1) × 10^−2 mM
same,kcat,[2],2.4 ± 0.1 s⁻¹
same,kcat/Km,[2],25000 ± 2000 M⁻¹ s⁻¹
